What is called EC50 is the concentration needed to bring the measured effect to its halfway point.

Assay [1] addresses His-tagged hNRP2 (amino acids 146 to 595), a2b1b2 domains, for crystallization (human, UniProt O60462-3). Kind of assay: crystal structure.
For assay [2], the target named is biotinylated NRP2 (epitope binning) (Homo sapiens, UniProt O60462-3, biotin (site not stated)). Kind of assay: BLI. (In general: In BLI a coated tip is dipped into the sample, and binding shifts an interference pattern.)
For assay [3], the target named is T1, human NRP2 (v2, NM_003872.3), untagged, stably overexpressed on Expi293F cells (Expi293F-hNRP2) (human, UniProt O60462-3 21-926).
T1 sequence (looked up): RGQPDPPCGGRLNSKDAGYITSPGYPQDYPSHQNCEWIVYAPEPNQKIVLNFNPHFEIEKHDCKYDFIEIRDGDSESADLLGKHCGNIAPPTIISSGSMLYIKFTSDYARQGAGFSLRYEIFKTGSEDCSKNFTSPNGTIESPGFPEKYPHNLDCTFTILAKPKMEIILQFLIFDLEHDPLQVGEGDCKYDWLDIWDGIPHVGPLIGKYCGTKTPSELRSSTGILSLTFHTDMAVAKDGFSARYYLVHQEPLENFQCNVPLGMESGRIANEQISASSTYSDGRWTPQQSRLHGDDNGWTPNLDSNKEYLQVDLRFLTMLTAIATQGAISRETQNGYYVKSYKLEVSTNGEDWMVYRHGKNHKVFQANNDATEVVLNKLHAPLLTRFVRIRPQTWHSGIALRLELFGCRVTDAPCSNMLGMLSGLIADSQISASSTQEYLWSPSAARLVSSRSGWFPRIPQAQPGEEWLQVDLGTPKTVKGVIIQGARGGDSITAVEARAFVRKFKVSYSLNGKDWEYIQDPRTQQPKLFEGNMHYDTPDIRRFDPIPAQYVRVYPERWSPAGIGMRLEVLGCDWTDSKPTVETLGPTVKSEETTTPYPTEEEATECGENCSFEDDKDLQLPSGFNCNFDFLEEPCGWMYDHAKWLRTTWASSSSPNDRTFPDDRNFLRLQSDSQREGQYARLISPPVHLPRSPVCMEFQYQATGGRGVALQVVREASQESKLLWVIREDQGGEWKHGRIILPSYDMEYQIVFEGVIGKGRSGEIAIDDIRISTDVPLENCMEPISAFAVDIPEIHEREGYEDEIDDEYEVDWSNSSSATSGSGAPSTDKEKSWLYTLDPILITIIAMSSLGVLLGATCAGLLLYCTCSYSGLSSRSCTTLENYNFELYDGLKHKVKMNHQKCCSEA
The assay is described as follows: flow cytometry on cells. A general note: A flow cytometer gives signals particle by particle.

B1: aNRP2-10 Fab (Fab, V domains shown)
VH: EVQLVQSGAEVKKPGATVKISCKVSGFNIKDYYIHWVQQAPGKGLEWMGRIDVEDDETKYAPKFQGRVTITADTSTDTAYMELSSLRSEDTAVYYCATPIYGSREAWFAYWGQGTLVTVSS
VL: DIQMTQSPSSLSASVGDRVTITCTASSSVSSSYLHWYQQKPGKAPKLLIYRTSNLASGVPSRFSGSGSGTDFTLTISSLQPEDFATYYCHQYYRSPPTFGGGTKVEIK
With B1, the binding result in assay [1] is “binds”.

B2: Genentech aNRP2B antibody (antibody, V domains shown)
VH: EVQLVESGGGLVQPGGSLRLSCAASGFTITSSGIHWVRQAPGKGLEWVARITPYDGSTDYADSVKGRFTISADTSKNTAYLQMNSLRAEDTAVYYCARYRGRLLFDYWGQGTLVTVSS
VL: not shown
For B2, the binding result in assay [2] was “binds”.

B3: recombinant human VEGF-C, untagged (ligand, UniProt P49767 112-227, looked up)
chain: AHYNTEILKSIDNEWRKTQCMPREVCIDVGKEFGVATNTFFKPPCVSVYRCGGCCNSEGLQCMNTSTSYLSKTLFEITVPLSQGPKPVTISFANHTSCRCMSKLDVYRQVHSIIRR
For B3, the EC50 in assay [3] was 0.6 nM.

Values taken from paper PMC10583499 (Science translational medicine, 2023).
